Test results reported in patent publication US20240042032A1 (TENEOBIO, published 2024).
Residue numbers refer to the chain shown, from its start.

T1: human CD19 on CD19+ cells (Raji, Daudi, Ramos, SU-DHL-10, Nalm6) (human, UniProt P15391 20-556)
T1 construct: whole, on cells; also called B-Lymphocyte Surface Antigen B4
T1 sequence (looked up): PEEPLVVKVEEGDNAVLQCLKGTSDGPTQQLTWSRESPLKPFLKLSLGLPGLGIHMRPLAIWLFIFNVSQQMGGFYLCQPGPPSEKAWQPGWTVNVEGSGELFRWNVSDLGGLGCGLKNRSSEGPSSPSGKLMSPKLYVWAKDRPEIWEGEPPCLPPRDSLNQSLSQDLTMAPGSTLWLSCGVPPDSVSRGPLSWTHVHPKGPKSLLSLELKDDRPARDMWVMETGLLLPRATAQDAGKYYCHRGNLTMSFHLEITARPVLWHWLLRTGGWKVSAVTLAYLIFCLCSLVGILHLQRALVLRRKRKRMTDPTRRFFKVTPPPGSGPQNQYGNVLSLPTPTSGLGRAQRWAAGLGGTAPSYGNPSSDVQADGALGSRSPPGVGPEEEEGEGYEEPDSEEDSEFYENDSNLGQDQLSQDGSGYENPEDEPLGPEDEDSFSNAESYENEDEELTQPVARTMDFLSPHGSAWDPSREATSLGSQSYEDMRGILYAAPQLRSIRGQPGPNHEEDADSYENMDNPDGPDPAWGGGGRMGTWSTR

B1: anti-CD19 heavy chain-only antibody (UniAb) clone ID 370083 (antibody, V domains shown)
VH: QVQLVESGGGLVKPGGSLRLSCAASGFTFSDYYMSWIRQAPGKGLEWVSYMSSSGSTIYYADSVKGRFTISRDNAKNSLYLQMTSLRAEDTAVYYCARGGIAATGTWGQGTLVTVSS
notes: Heavy chain-only antibody with no light chain, tested as purified UniAb and detected with anti-human IgG; Only the VH is tied to the clone
B2: anti-CD19 heavy chain-only antibody (UniAb) clone ID 370034 (antibody, V domains shown)
VH: B1 VH with N77K, T84N, T104A
notes: Heavy chain-only antibody with no light chain, tested as purified UniAb and detected with anti-human IgG; Only the VH is tied to the clone; also called HCAb 370034

Biological target: T1, human CD19 on CD19+ cells (Raji, Daudi, …)
Experiment: cell-binding assay on CD19+ cells

Binder | binding result
B1 | binds
B2 | binds
